Assay results taken from publication PMC5762521.

Target: T1, Heat shock transcription factor-1 (HSF-1) (human (endogenous in HCT-116)), Q00613
T1 chain: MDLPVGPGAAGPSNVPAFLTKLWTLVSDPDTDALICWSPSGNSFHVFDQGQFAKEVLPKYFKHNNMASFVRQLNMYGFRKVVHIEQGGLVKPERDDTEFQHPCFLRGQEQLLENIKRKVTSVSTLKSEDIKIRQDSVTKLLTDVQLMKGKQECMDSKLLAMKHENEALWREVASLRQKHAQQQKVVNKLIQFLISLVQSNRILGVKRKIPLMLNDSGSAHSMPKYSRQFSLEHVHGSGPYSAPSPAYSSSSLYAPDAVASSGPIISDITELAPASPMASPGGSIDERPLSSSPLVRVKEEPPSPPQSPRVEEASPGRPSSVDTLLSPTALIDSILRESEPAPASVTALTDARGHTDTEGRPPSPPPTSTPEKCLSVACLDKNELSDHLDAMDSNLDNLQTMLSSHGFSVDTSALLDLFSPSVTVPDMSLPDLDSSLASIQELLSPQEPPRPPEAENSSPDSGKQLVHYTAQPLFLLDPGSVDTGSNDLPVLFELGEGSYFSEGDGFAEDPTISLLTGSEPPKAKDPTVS
Assay: cross-linking; HCT-116 cell lysates (control, heat shock, vitexin-treated); 10 ug protein with 2 mM glutaraldehyde, room temperature, 30 min, stopped with lysine; SDS-PAGE and anti-HSF-1 blot; vitexin treatment said to inhibit oligomerization
Settings: remark: other sources report otherwise

B1: Heat shock transcription factor-1 (HSF-1), Q00613 1-529 (natural protein)
chain: T1 chain
B1 gave a stoichiometry N of 3.
